pKd: −log10 of the molar value. Where two headings read alike, the source gives them in different places.
Experiments:
[1] = target: human serum albumin (HSA) (Homo sapiens) (UniProt P02768); settings: ELISA, SB18, 37 C
[2] = target: CD3 delta/epsilon heterodimer (UniProt P04234+P07766); settings: ELISA, SB18, 37 C
[3] = target: PD-L1 (B7-H1) (Homo sapiens) (UniProt Q9NZQ7); settings: ELISA, SB18, 37 C
[4] = target: 4-1BB (TNFRSF9) (Homo sapiens) (UniProt Q07011); settings: ELISA
KRAS G12D G12D, P01116-2 = settings: ELISA, SB18, 37 C
[5] = Nap-dU at n (6) positions [Nap-dU at 16,20,23,28,29,30,31,34,40,41,42,45,54]
[6] = Nap-dU at n (6) positions [Nap-dU at 18,22,26,34,36,39,42,43,46,52,57]
[7] = Nap-dU at n (6) positions [18,20,22,32,33,34,35,36,44,45,47,53,57 (Nap-dU)]
[8] = Nap-dU at n (6) positions [18,20,26,27,29,31,35,36,42,45,53,54,55,56]
[9] = Nap-dU at n (6) positions [Nap-dU at 3,6,11,12,13,14,17,23,24,25,28,37]
[10] = Nap-dU at n (6) positions [4,8,14,21-23,25]
[11] = Nap-dU at n (6) positions [4,8,14,21,22,23,25]
[12] = Nap-dU at n (6) positions [Nap-dU at 5,6,7,8,11,17,18,19,22]
[13] = Nap-dU at n (6) positions [Nap-dU at 4,17,24,26,29,32,33,36,45]
[14] = Nap-dU at n (6) positions [13,15-16,18,23-24,29,31,34,41,44]
[15] = Nap-dU at n (6) positions [9,14,18,24,31,32,33,35,44]
[16] = Nap-dU at n (6) positions [Nap-dU at 21,28,30,33,36,37,40,49]
[17] = Nap-dU at n (6) positions [2,4,9,17,19,23,24,25,26,33,35]
[18] = Nap-dU at n (6) positions [1,7,9,15,17,19,24,32,34,38,39,40,41,48,50]
[19] = Nap-dU at n (6) positions [1,6,7,8,14,16,18,20]
[20] = Nap-dU at n (6) positions [1,6,7,8,14,16,18,20], SB18, 37 C
[21] = Nap-dU at n (6) positions [Nap-dU at 1,6,7,8,9,12,18,19,20,23]

Chain of PD-L1 (B7-H1) (Homo sapiens) (Q9NZQ7 19-238): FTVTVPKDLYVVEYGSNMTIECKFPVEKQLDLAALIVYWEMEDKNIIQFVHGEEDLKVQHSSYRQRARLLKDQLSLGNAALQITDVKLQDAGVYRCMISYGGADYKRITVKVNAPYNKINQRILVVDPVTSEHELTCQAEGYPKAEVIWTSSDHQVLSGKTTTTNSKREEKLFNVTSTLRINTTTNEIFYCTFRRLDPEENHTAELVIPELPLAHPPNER
Chain of CD3 delta/epsilon heterodimer (P04234 22-105, stated change not applied, chain 1 of 2): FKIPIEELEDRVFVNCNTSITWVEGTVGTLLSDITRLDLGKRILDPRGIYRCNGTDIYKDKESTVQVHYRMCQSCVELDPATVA
Chain of CD3 delta/epsilon heterodimer (P07766 23-126, stated change not applied, chain 2 of 2): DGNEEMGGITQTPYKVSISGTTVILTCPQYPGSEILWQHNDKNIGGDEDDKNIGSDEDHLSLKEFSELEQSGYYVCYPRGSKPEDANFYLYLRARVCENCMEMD
Chain of 4-1BB (TNFRSF9) (Homo sapiens) (Q07011 24-186): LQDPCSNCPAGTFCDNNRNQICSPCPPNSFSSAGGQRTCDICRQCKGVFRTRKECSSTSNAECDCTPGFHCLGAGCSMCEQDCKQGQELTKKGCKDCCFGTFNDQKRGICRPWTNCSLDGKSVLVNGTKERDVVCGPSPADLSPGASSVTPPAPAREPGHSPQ

For “GAGTGACCGTCTGCCTGGATCCTGCCCTTTTAATCCGACTTTAATGGCCACGCTCACCAGCCACACCACCAGCC [AA001]”, the pKd [1, 5] was 8.02 and the pKd [2, 5] was 8.50.
Work on “GAGTGACCGTCTGCCTGTCAATCACTGACGAAATGTACTACTTGATAGAGCTAACCTCAGCCACACCACCAGCC [AP027]” yielded a pKd [3, 6] of 6.45 and a pKd [1, 6] of 8.66.
For “GAGTGACCGTCTGCCTGTCTCCAACCTCGCCTTTACAACTATATCTGACGAACTAACACAGCCACACCACCAGCC [AB001]”, the pKd ([1]; Nap-dU at n (6) positions [Nap-dU at 16,18,20,27,32,33,34,40,42,44,46,54]) was 8.08 and the pKd ([4]; Nap-dU at n (6) positions [Nap-dU at 16,18,20,27,32,33,34,40,42,44,46,54], SB18 buffer (5 mM MgCl2), 37 C) was 10.40.
“GAGTGACCGTCTGCCTGTGTCTGAGGGACCCTTTTTAAGGGCATTATCAGCATGCCTCACACAGCCACACCACCAGCC [AD002]” was tested, and the pKd (KRAS G12D G12D, P01116-2; [7]) was 9.26 and the pKd [1, 7] was 8.89.
Sequence “GAGTGACCGTCTGCCTGTGTGAGAATTATGTACCTTAACGATCATCCGAAGGTTTTGACCACAGCCACACCACCAGCC [AD001]” has a pKd (KRAS G12D G12D, P01116-2; [8]) of 8.09 and a pKd [1, 8] of 8.08.
Work on “GATCCTGCCCTTTTAATCCGACTTTAATGGCCACGCTCAC [AA003]” yielded a pKd [1, 9] of 8.36 and a pKd [2, 9] of 8.12.
In the case of GCATAAGTCCGGATGGCAGCTTTATGC [AD008], the pKd (KRAS G12D G12D, P01116-2; [10]) was 6.54 and the pKd [1, 10] was 7.17.
“GCATAAGTCCGGATGGCAGCTTTATGCCGACC [AD007]” gave a pKd (KRAS G12D G12D, P01116-2; [11]) of 6.82 and a pKd [1, 11] of 6.27.
In the case of GCCCTTTTAATCCGACTTTAAT [AA007], the pKd [1, 12] was 8.69 and the pKd [2, 12] was 7.82.
“GCCTGACAACAACGAGTGCGAACTGTACTACTTGATAGAGACCCTCAGCC [AP001]” showed a pKd [3, 13] of 7.37 and a pKd [1, 13] of 7.68.
In the case of “GCCTGCCCCGCCTCTTCTGAAGTTAACATGTGCTCCGAGATGGTACAGCC [AD010]”, the pKd (KRAS G12D G12D, P01116-2; [14]) was 8.09 and the pKd [1, 14] was 8.35.
“GCCTGGACTAGCATAAGTCCGGATGGCAGCTTTATGCCGACCATCAGCC [AD004]” gave a pKd (KRAS G12D G12D, P01116-2; [15]) of 7.78 and a pKd [1, 15] of 6.72.
In the case of “GCCTGTCTCCAACCTCGCCTTTACAACTATATCTGACGAACTAACACAGCC [AB002]”, the pKd ([1]; Nap-dU at n (6) positions [6,8,15,20,21,22,28,30,32,34,42]) was 8.53 and the pKd ([4]; Nap-dU at n (6) positions [6,8,15,20,21,22,28,30,32,34,42], SB18, 37 C) was 9.32.
In the case of “GTCTGCCTGACAACAACGAGTGCGAACTGTACTACTTGATAGAGACCCTC [AP024]”, the pKd [3, 16] was 7.48 and the pKd [1, 16] was 7.65.
“GTCTGCCTGACAACAACGAGTGCGAACTGTACTACTTGATAGAGACCCTCAGCCACACCACCAGCC [AP022]” gave a pKd [3, 16] of 7.18 and a pKd [1, 16] of 7.78.
Work on “GTGTGACCTGAAGACGTATAACTTTTACAGAATCTACA [AD050]” yielded a pKd (KRAS G12D G12D, P01116-2; [17]) of 6.34 and a pKd [1, 17] of 8.26.
Work on “TCGAGCTGTACGCGTGTGTGACCTGAAGACGTATAACTTTTACAGAATCTACA [AD053]” yielded a pKd (KRAS G12D G12D, P01116-2; [18]) of 8.99 and a pKd [1, 18] of 8.86.
TCGCCTTTACAACTATATCTGACGA [AB007] was tested, and the pKd [1, 19] was 6.73 and the pKd [4, 20] was 9.31.
TCGCCTTTACAACTATATCTGACGAAC [AB006] showed a pKd [1, 19] of 6.56 and a pKd [4, 20] of 9.36.
“TCTCCAACCTCGCCTTTACAACTATATCTGACGAACTAACA [AB003]” was tested, and the pKd ([1]; Nap-dU at n (6) positions [1,3,10,15,16,17,23,25,27,29,37]) was 7.70 and the pKd ([4]; Nap-dU at n (6) positions [1,3,10,15,16,17,23,25,27,29,37], SB18, 37 C) was 9.06.
Sequence TGCCCTTTTAATCCGACTTTAATGGC [AA006] has a pKd [1, 21] of 7.81 and a pKd [2, 21] of 7.85.
Work on TGCCCTTTTAATCCGACTTTAATGGCCACG [AA005] yielded a pKd [1, 21] of 8.08 and a pKd [2, 21] of 7.40.

From US20230220399
